Where two headings read alike, the source gives them in different places.
Assays:
[1] = molecular target: ADM (human or mouse not told for the control row of Table 3); assay: cell-based or functional assay
[2] = molecular target: human recombinant adrenomedullin receptor (CRLR+RAMP3) (human)
[3] = molecular target: human recombinant adrenomedullin receptor (CRLR+RAMP3) (human); remark: listed apart in the source

Row | Substance | Maximal inhibition of ADM bioactivity (ADM-Bioassay) (%) [1] | IC50 (read off the curve) [2] | IC50 (read off the curve) [3]
1 | Non specific mouse IgG (antibody) | 0% |  | 
2 | hADM 22-52 (on the sheet: antagonist) (peptide) |  | 3 µM | 0.2 µM

Reference: patent publication US20140328853A1
